Experimental data as given in US20160304604A1 (H LUNDBECK A S, published 2016).

T1: human PACAP27 (human, C-terminal leucine is amidated)
T1 peptide: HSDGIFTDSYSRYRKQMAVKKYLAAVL

T2: human PACAP38 (human, not fully specified; C-terminal lysine is amidated)
T2 peptide: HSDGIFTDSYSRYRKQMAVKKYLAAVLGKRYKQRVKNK

T3: PAC1-R on PC-12 cells (UniProt P32215 20-523)
T3 construct: whole, on cells; Endogenous receptor of PC-12 cells; also called PAC1 receptor; PAC1-R-expressing PC-12 cells
T3 sequence (looked up): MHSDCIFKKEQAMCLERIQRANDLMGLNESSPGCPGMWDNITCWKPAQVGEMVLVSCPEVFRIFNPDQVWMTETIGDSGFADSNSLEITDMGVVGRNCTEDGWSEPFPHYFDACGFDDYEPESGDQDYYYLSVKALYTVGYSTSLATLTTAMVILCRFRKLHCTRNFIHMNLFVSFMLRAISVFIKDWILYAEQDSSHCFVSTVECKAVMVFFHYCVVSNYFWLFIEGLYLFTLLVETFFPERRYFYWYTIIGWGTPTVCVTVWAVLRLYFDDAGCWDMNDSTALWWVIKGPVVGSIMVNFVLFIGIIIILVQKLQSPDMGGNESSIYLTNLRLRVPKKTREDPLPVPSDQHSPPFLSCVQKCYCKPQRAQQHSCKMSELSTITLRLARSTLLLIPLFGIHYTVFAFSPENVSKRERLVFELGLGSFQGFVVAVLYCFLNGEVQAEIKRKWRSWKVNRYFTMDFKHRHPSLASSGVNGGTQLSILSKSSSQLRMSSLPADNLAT


Legend:
[1] = target: T1, human PACAP27; experiment: cell-based or functional assay
[2] = target: T2, human PACAP38; experiment: cell-based or functional assay
[3] = target: T2, human PACAP38; experiment: cell-based or functional assay
[4] = target: T2, human PACAP38; experiment: SPR (ProteOn XPR36), antibody amine-coupled to chip, PACAP38 as analyte 1.23-100 nM, 1:1 Langmuir fit
Method: Binding affinities of monoclonal antibodies for human PACAP were estimated using SPR on the PROTEON™ XPR36 (Bio-Rad, Hercules, Calif.). Antibody was immobilized to the surface of general amine coupling (“GLC” or “GLM”) Chips (Bio-Rad, Hercules, Calif.). A dilution series of human PACAP38 (SEQ ID NO: 1241) prepared in 1×PBST Buffer (4.3 mM Na Phosphate, 1.4 mM K Phosphate, 135 mM NaCl, 2.7 mM KCl 0.05% Polysorbate-20) purchased from Teknova (Cat# P1192, Teknova, Hollister, Calif.) and supplemented with 0.25 M arginine (from J. T. BAKER®), 0.2 mg/ml BSA (Jackson Immuno Research Labs, West Grove, Pa.), and 0.005% sodium azide (VWR International, Radnor, Pa.) with the pH adjusted to 7 was used to query the antibodies. Antigen (ranging from 1.23 nM to 100 nM) was typically run sequentially with association times of 2-4 minutes and dissociation times of 3-120 minutes grouped with the PROTEON™ Manager Software (v3.1.0.6 (Bio-Rad, Hercules, Calif.)) and fitted using a 1:1 Langmuir binding model. Surfaces were regenerated between analyte queries using 0.85% Phosphoric Acid.

[5] = target: T1, human PACAP27; experiment: SPR (ProteOn XPR36), antibody amine-coupled to chip, PACAP27 as analyte 1.23-1000 nM
[6] = target: T2, human PACAP38; experiment: cell-based or functional assay
[7] = target: T3, PAC1-R on PC-12 cells; experiment: DELFIA TRF cell-surface binding assay: antibody pre-incubated with PACAP38 (200 nM stock mixed 1:1), added to PAC1-R-expressing PC-12 cells, Eu anti-human IgG detection
Method: Cells were initially seeded at 1×10⁵ cells/well in a solution of complete RPMI (“cRPMI”: RPMI medium supplemented with 10% sterile heat-inactivated FBS and 1% sterile antibiotic/antimycotic)+10% FBS, and the plates were allowed to incubate overnight at 37° C. On the day of the binding assay, antibodies at an initial concentration of 15 μg/ml were diluted at a 1:3 ratio in DELFIA® binding buffer (50 mM Tris, 150 mM NaCl, 0.1% azide, 2% horse serum) (Perkin-Elmer, Waltham, Mass.) to a total volume of 60 μL in a separate 96 well round bottom plate. PACAP38 was prepared for the binding assay by diluting it in DELFIA® binding buffer to a concentration of 200 nM, and then 60 μl of the diluted PACAP38 was added to each of the antibody-containing wells to form antibody:antigen complexes. Following addition of PACAP38, the antibody:antigen complexes were incubated at room temperature on a shaker for 1 hour. […]
DELFIA® Europium labeled anti-human IgG detection reagent (Cat #1244-330, Perkin-Elmer, Waltham, Mass.) was diluted to a concentration of 300 ng/ml in DELFIA® Binding Buffer. […] The plates were then read (TRF, excitation 330 nm, emission 620 nm) on a SPECTRAMAX® (Molecular Devices, Sunnyvale, Calif.) plate reader.

Inhibition of 0.1 nM PACAP27-induced PAC1-R mediated cAMP increase IC50 (PC-12 cells, HTRF) [1] [pM] | Inhibition of 0.1 nM PACAP38-induced PAC1-R mediated cAMP increase IC50 (PC-12 cells, HTRF) [2] [pM] | Inhibition of 1 nM PACAP38-induced human VPAC2-R mediated cAMP increase IC50 (CHO-K1 cells, HTRF) [3] [nM] | Kd [4] [nM] | koff [4] [s⁻¹] | Kd [5] [nM] | koff [5] [s⁻¹] | Inhibition of 5 nM PACAP38-induced human VPAC1-R mediated cAMP increase IC50 (CHO-K1 cells, HTRF) [6] [pM] | Binder | binding result [7]
204 | 246 | 1.51 | 0.021 | 1e-05 | 0.016 | 1e-05 | 2100 | Ab21.H (antibody, V domains shown) VH: EVQLVESGGGLVQPGGSLRLSCAASGIDLSSYYMTWVRQAPGKGLEWIGFIDAGGSAYYATWAKGRFTISRDNSKNTVYLQMNSLRAEDTAVYFCARDLDLWGQGTLVTVSS VL: DAQLTQSPSTLSASVGDRVTITCKSSESVYGDYLAWFQQKPGKAPKQLIYDASTLASGVPSRFSGSGSGTEFTLTISSLQPDDFATYYCAGGYVSAGVAFGGGTKVEIKR | –
227 | 180 | 0.189 | – | – | – | – | 649 | Ab10 (antibody, human IgG1, kappa, N297A, V domains shown, also called anti-PACAP antibody Ab10) VH: QSVEESGGRLVTPGTPLTLTCTVSGIDLNSYYMTWVRQAPGKGLEWIGFIDAGGDAYYASWAKGRFTISKTSTTVDLKITSPTTEDTATYFCARDLDLWGQGTLVTVSS VL: AAVLTQTPSPVSAAVGGTVTINCQSSESVYGNYLAWFQQKPGQPPKLLIYEASKLESGVPSRFSGSGSGTQFTLTISDLQCDDAATYYCAGGDISEGVAFGGGTEVVVKR | no binding (tested: about 5000 nM (last point as drawn))
140 | 239 | 5.21 | – | – | – | – | 2850 | Ab21 (antibody, human IgG1, kappa, N297A, V domains shown) VH: QSVEESGGRLVTPGTPLTLTCTVSGIDLSSYYMTWVRQAPGKGLEWVGFIDAGGSAYYATWAKGRFTISKASTTVDLKITSPTTEDTATYFCARDLDLWGPGTLVTVSS VL: AAVLTQTPSPVSAAVGGTVSISCKSSESVYGDYLAWFQQKPGQPPKQLIYDASTLASGVPSRFKGSGSGTQFTLTISGVQCDDAATYYCAGGYVSAGVAFGGGTEVVVKR | –
188 | 368 | 14.6 | – | – | – | – | 3890 | Ab20 (antibody, human IgG1, kappa, N297A, V domains shown) VH: QSVEESGGRLVTPGTPLTLTCTVSGIDLSSYYMSWVRQAPGKGLEWIGFIDTDGSAYYATWAKGRFTISKTSTTVDLKITSPTTEDTATYFCARDLDLWGPGTLVTVSS VL: AAVLTQTPSPVSAAVGGTVSISCQSSESVYSNYLAWFQQKPGQPPKFLIYEASKLASGVPSRFKGSGSGTQFTLTISDVQCDDAGTYYCAGGYSSEGVAFGGGTEVVVKR | –
